According to patent US20260022175A1 (Chugai, published 2026):
Residue numbers refer to the chain shown, from its start. Names and notes keep the numbering of the source. Values belong to the binder of their own block, whether it stands above or below them.

How the values were obtained:
[1] = target: T1, human FcγRIIIa V allotype extracellular domain with C-terminal His-tag (human, UniProt P08637 17-208); test: SPR Biacore T200, Ab captured via Fab-lambda, pH 7.4, 25C;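 note: antibodies captured on a streptavidin chip carrying biotinylated anti-Fab-lambda, with each FcγR injected as analyte in phosphate buffer. KD fitted by 1:1 Langmuir or steady-state model depending on receptor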
T1 construct: extracellular domain; also called hFcγR IIIa V
T1 sequence (P08637 17-208 F176V): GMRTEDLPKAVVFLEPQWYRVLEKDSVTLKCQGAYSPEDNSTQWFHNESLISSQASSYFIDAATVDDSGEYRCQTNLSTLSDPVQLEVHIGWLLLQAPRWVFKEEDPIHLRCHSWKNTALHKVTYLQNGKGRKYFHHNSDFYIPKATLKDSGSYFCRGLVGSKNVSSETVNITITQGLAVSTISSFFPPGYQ
Experimental: (§1) The interaction between the generated antibodies and human FcγRs was analyzed by the following method using Biacore T200. 50 mM Na-Phosphate, 150 mM NaCl, 0.05% Tween20 (pH 7.4) was used as the running buffer, and the assay was performed at 25° C. For the sensor chips, Series S SA (GE Healthcare) chips onto which CaptureSelect Human Fab-lambda Kinetics Biotin Conjugate (Thermo Fisher Scientific) was immobilized were used. The antibodies of interest were captured onto these chips and each FcγR diluted in the running buffer was allowed to interact with them. Chips were regenerated with 10 mM Glycine-HCl (pH 1.5) and 25 mM NaOH, and assay was performed by repeatedly capturing antibodies. The dissociation constants KD (mol/L) for FcγRs of each antibody were calculated using Biacore T200 Evaluation Software 2.0, using the 1:1 Langmuir binding model for FcγRIa and FcγRIIIa and the steady state affinity model for FcγRIIa. For FcγRIIb, the binding amount of FcγRIIb per unit amount of antibody was calculated by correcting the binding amount of FcγRIIb obtained from the sensorgram obtained by the measurement with the amount of antibody captured onto the chip surface.

[2] = target: T2, human FcγRIa extracellular domain with C-terminal His-tag (human, UniProt P12314 16-292); test: as above
T2 construct: extracellular domain; also called hFcγR Ia; hFcγRIa
T2 sequence (P12314 16-292): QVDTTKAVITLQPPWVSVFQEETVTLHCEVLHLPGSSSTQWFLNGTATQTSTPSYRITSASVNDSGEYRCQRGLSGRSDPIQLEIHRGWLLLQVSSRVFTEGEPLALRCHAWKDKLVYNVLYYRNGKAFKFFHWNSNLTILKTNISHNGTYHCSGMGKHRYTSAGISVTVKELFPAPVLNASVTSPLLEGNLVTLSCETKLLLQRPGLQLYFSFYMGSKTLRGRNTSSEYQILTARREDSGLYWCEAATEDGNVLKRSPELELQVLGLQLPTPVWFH
Experimental: as §1

[3] = target: T3, human FcγRIIa H allotype extracellular domain with C-terminal His-tag (human, UniProt P12318 34-217); test: as above
T3 construct: extracellular domain; also called hFcγR IIa H
T3 sequence (looked up): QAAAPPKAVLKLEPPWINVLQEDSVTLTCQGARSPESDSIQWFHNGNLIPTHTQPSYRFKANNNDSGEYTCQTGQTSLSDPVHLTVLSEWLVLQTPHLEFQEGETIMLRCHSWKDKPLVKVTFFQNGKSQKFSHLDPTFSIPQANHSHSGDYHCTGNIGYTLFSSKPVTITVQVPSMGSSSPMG
Experimental: as §1

[4] = target: T4, human FcγRIIa R allotype extracellular domain with C-terminal His-tag (human, UniProt P12318 34-217); test: as above
T4 construct: extracellular domain; also called hFcγR IIa R
T4 sequence (looked up): T3 sequence (looked up) with H134R
Experimental: as §1

[5] = target: T5, human FcγRIIIa F allotype extracellular domain with C-terminal His-tag (human, UniProt P08637 17-208); test: as above
T5 construct: extracellular domain; also called hFcγR IIIa F
T5 sequence (P08637 17-208): as the sequence (P08637 17-208 F176V) above, with V160F counted along it
Experimental: as §1

human FcRn [6] = target: T6, human FcRn (human, UniProt P55899 24-290; P61769 21-119); test: SPR Biacore T200, Ab captured via Fab-lambda, pH 6.0, 25C, steady state
T6 construct: Prepared by the method of WO 2010/107110; also called hFcRn
Experimental: (§2) The interaction between the generated antibodies and human FcRn was analyzed by the following method using Biacore T200. 50 mM Na-Phosphate, 150 mM NaCl, 0.05% Tween20 (pH 6.0) was used as the running buffer, and the assay was performed at 25° C. For the sensor chip, Series S SA (GE Healthcare) chips onto which CaptureSelect Human Fab-lambda Kinetics Biotin Conjugate (Thermo Fisher Scientific) was immobilized were used. The antibodies of interest were captured onto these chips and FcRn diluted in the running buffer was allowed to interact with them. Chips were regenerated with 10 mM Glycine-HCl (pH 1.5) and 25 mM NaOH, and assay was performed by repeatedly capturing antibodies. The dissociation constant for FcRn of each antibody was calculated using the steady state model, using Biacore T200 Evaluation Software 2.0.

[7] = target: T7, human FcγRIIb extracellular domain with C-terminal His-tag (human, UniProt P31994 43-217); test: SPR; FcγRIIb at 1000 nM, bound amount per unit captured Ab
T7 construct: extracellular domain; also called hFcγR IIb
T7 sequence (looked up): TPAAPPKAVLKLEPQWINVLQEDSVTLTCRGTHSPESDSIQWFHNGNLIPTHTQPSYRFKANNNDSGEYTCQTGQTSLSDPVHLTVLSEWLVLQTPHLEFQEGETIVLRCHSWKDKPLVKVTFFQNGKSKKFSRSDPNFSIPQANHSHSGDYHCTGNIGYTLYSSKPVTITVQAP

[8] = target: T7, human FcγRIIb extracellular domain with …; test: SPR; binding amount divided by that of 04H1637-G1m/04L1610-lam1
[9] = target: T1, human FcγRIIIa V allotype extracellular …; test: SPR; KD of 04H1637-G1m/04L1610-lam1 divided by KD of variant;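 note: biacore T200 SPR at 25 °C, antibodies captured on anti-Fab-lambda SA chip with receptor as analyte, running buffer pH 7.4 for FcγRs and pH 6.0 for FcRn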
Experimental: as §1, §2

[10] = target: T2, human FcγRIa extracellular domain with …; test: as above
Experimental: as §1, §2

[11] = target: T3, human FcγRIIa H allotype extracellular …; test: as above
Experimental: as §1, §2

[12] = target: T4, human FcγRIIa R allotype extracellular …; test: as above
Experimental: as §1, §2

[13] = target: T5, human FcγRIIIa F allotype extracellular …; test: as above
Experimental: as §1, §2

human FcRn [14] = target: T6, human FcRn; test: as above
Experimental: as §1, §2

Kd [1]: 2.2 nM | Kd [2]: 0.03 nM | Kd [3]: 110 nM | Kd [4]: 160 nM | Kd [5]: 3.3 nM | Kd (human FcRn [6]): 1500 nM | Binding amount [7]: 0.025 | Relative binding amount [8]: 3.1 | Relative value to KD between G1m and hFcγRs [9]: 110 | Relative value to KD between G1m and hFcγRs [10]: 1.6 | Relative value to KD between G1m and hFcγRs [11]: 13.9 | Relative value to KD between G1m and hFcγRs [12]: 13 | Relative value to KD between G1m and hFcγRs [13]: 415 | Relative value to KD between G1m and hFcRn (human FcRn [14]): 0.9
B1: 04H1654-KT462/04L1610-lam1//04H1656-HT445/04L1610-lam1 (antibody, human IgG1, lambda)
heavy 1: QVQLVESGGGVVQPGGSLRLSCAASGFTFSSKTMNWVRQAPGKGLEWVSSISTQSHYIYYARSVRGRFTISRDNAKNSLYLQMNSLRAEDTAVYYCARYGKREDMLWVFDYWGQGTLVTVSSASTKGPSVFPLAPSSKSTSGGTAALGCLVKDYFPEPVTVSWNSGALTSGVHTFPAVLQSSGLYSLSSVVTVPSSSLGTQTYICNVNHKPSNTKVDKRVEPKSCDKTHTCPPCPAPEFQWGPMVFLFPPKPKDVLMISRTPEVTCVVVDVSDEEPEVKFNWYVDGVEVHNAKTKPREEQYNATYRVVSVLPVLHQDWLNGKEYKCKVSNDALPAPIEKTISKAKGQPREPQVYTLPPSRKEMTKNQVSLTCLVKGFYPSDIAVEWESNGQPENNYKTTPPVLDSDGSFFLYSKLTVDKSRWQQGNVFSCSVMHEALHNHYTQKSLSLSP
heavy 2: QVQLVESGGGVVQPGGSLRLSCAASGFTFSSKTMNWVRQAPGKGLEWVSSISTQSHYIYYAESVRGRFTISRDNAKNSLYLQMNSLRAEDTAVYYCARYGAREDMLWVFDYWGQGTLVTVSSASTKGPSVFPLAPSSKSTSGGTAALGCLVKDYFPEPVTVSWNSGALTSGVHTFPAVLQSSGLYSLSSVVTVPSSSLGTQTYICNVNHKPSNTKVDKRVEPKSCDKTHTCPPCPAPELLAGPSVFLFPPKPKDVLMISRTPEVTCVVVDVSHEEPEVKFNWYVDGVEVHNAKTKPREEQYNATYRVVSVLPVLHQDWLNGKEYKCKVSNDALPKPDEETISKAKGQPREPQVYTLPPSREEMTKNQVSLTCLVKGFYPSDIAVEWESNGQPENNYKTTPPVLDSDGSFFLYSKLTVDKSRWQQGNVFSCSVMHEALHNHYTQESLSLSP
light: QSALTQPPSASGSPGQSVTISCEGPSTGVGDYNWVHWYQQHPGKAPKLMIYFTSKKPSGVPDRFSGSKSGNTASLTVSGLQAEDEADYYCQTYAAPLGPMFGGGTKLTVLGQPKAAPSVTLFPPSSEELQANKATLVCLISDFYPGAVTVAWKADSSPVKAGVETTTPSKQSNNKYAASSYLSLTPEQWKSHRSYSCQVTHEGSTVEKTVAPTECS
notes: Heterodimerized antibody, IGHG1*03 constant region, E356K / K439E

Kd [1]: 1.7 nM | Kd [2]: 0.043 nM | Kd [3]: 230 nM | Kd [4]: 270 nM | Kd [5]: 2.9 nM | Kd (human FcRn [6]): 600 nM | Binding amount [7]: 0.022 | Relative binding amount [8]: 2.8 | Relative value to KD between G1m and hFcγRs [9]: 145 | Relative value to KD between G1m and hFcγRs [10]: 1.1 | Relative value to KD between G1m and hFcγRs [11]: 6.4 | Relative value to KD between G1m and hFcγRs [12]: 7.6 | Relative value to KD between G1m and hFcγRs [13]: 479 | Relative value to KD between G1m and hFcRn (human FcRn [14]): 2.2
B2: 04H1654-KT481/04L1612-lam1//04H1656-HT498/04L1612-lam1 (antibody)
heavy 1: B1 heavy 1 with I337E, N439A, Y441T, Q443R, S445E
heavy 2: B1 heavy 2 with K335A, D337E, N439A, Y441T, Q443R, S445E
light: B1 light with N33T, W34Y
notes: Heterodimerized antibody with N434A/Y436T/Q438R/S440E

Kd [1]: 1.5 nM | Kd [2]: 0.032 nM | Kd [3]: 200 nM | Kd [4]: 240 nM | Kd [5]: 2.6 nM | Kd (human FcRn [6]): 1500 nM | Binding amount [7]: 0.025 | Relative binding amount [8]: 3.1 | Relative value to KD between G1m and hFcγRs [9]: 156 | Relative value to KD between G1m and hFcγRs [10]: 1.5 | Relative value to KD between G1m and hFcγRs [11]: 7.3 | Relative value to KD between G1m and hFcγRs [12]: 8.4 | Relative value to KD between G1m and hFcγRs [13]: 526 | Relative value to KD between G1m and hFcRn (human FcRn [14]): 0.9
B3: 04H1654-KT461/04L1610-lam1//04H1656-HT443/04L1610-lam1 (antibody, human IgG1, lambda)
heavy 1: B1 heavy 1 with I337E
heavy 2: B1 heavy 2 with K335A, D337E
light: B1 light
notes: Heterodimerized antibody

Kd [1]: 2.2 nM | Kd [2]: 0.048 nM | Kd [3]: 91 nM | Kd [4]: 150 nM | Kd [5]: 3.9 nM | Kd (human FcRn [6]): 620 nM | Binding amount [7]: 0.026 | Relative binding amount [8]: 3.2 | Relative value to KD between G1m and hFcγRs [9]: 110 | Relative value to KD between G1m and hFcγRs [10]: 1 | Relative value to KD between G1m and hFcγRs [11]: 16.2 | Relative value to KD between G1m and hFcγRs [12]: 13.8 | Relative value to KD between G1m and hFcγRs [13]: 355 | Relative value to KD between G1m and hFcRn (human FcRn [14]): 2.1
B4: 04H1654-KT473/04L1612-lam1//04H1656-HT482/04L1612-lam1 (antibody)
heavy 1: B1 heavy 1 with N439A, Y441T, Q443R, S445E
heavy 2: B1 heavy 2 with N439A, Y441T, Q443R, S445E
light: B1 light with N33T, W34Y
notes: as for B2

Kd [1]: 1.5 nM | Kd [2]: 0.039 nM | Kd [3]: 210 nM | Kd [4]: 250 nM | Kd [5]: 2.6 nM | Kd (human FcRn [6]): 1600 nM | Binding amount [7]: 0.025 | Relative binding amount [8]: 3.1 | Relative value to KD between G1m and hFcγRs [9]: 159 | Relative value to KD between G1m and hFcγRs [10]: 1.3 | Relative value to KD between G1m and hFcγRs [11]: 7.1 | Relative value to KD between G1m and hFcγRs [12]: 8.2 | Relative value to KD between G1m and hFcγRs [13]: 537 | Relative value to KD between G1m and hFcRn (human FcRn [14]): 0.8
B5: 04H1654-KT461/04L1612-lam1//04H1656-HT443/04L1612-lam1 (antibody, human IgG1, lambda)
heavy 1: B1 heavy 1 with I337E
heavy 2: B1 heavy 2 with K335A, D337E
light: B1 light with N33T, W34Y
notes: Heterodimerized antibody

Kd [1]: 2.1 nM | Kd [2]: 0.046 nM | Kd [3]: 81 nM | Kd [4]: 150 nM | Kd [5]: 3.8 nM | Kd (human FcRn [6]): 580 nM | Binding amount [7]: 0.026 | Relative binding amount [8]: 3.2 | Relative value to KD between G1m and hFcγRs [9]: 115 | Relative value to KD between G1m and hFcγRs [10]: 1.1 | Relative value to KD between G1m and hFcγRs [11]: 18 | Relative value to KD between G1m and hFcγRs [12]: 13.9 | Relative value to KD between G1m and hFcγRs [13]: 363 | Relative value to KD between G1m and hFcRn (human FcRn [14]): 2.3
B6: 04H1654-KT473/04L1610-lam1//04H1656-HT482/04L1610-lam1 (antibody)
heavy 1: B1 heavy 1 with N439A, Y441T, Q443R, S445E
heavy 2: B1 heavy 2 with N439A, Y441T, Q443R, S445E
light: B1 light
notes: Heterodimerized antibody with N434A/Y436T/Q438R/S440E; also called SW1610-ART6+ACT1

Kd [1]: 1.6 nM | Kd [2]: 0.033 nM | Kd [3]: 230 nM | Kd [4]: 260 nM | Kd [5]: 2.8 nM | Kd (human FcRn [6]): 570 nM | Binding amount [7]: 0.022 | Relative binding amount [8]: 2.7 | Relative value to KD between G1m and hFcγRs [9]: 152 | Relative value to KD between G1m and hFcγRs [10]: 1.5 | Relative value to KD between G1m and hFcγRs [11]: 6.5 | Relative value to KD between G1m and hFcγRs [12]: 7.7 | Relative value to KD between G1m and hFcγRs [13]: 495 | Relative value to KD between G1m and hFcRn (human FcRn [14]): 2.3
B7: 04H1654-KT481/04L1610-lam1//04H1656-HT498/04L1610-lam1 (antibody)
heavy 1: B1 heavy 1 with I337E, N439A, Y441T, Q443R, S445E
heavy 2: B1 heavy 2 with K335A, D337E, N439A, Y441T, Q443R, S445E
light: B1 light
notes: as for B2

Kd [1]: 2.3 nM | Kd [2]: 0.041 nM | Kd [3]: 91 nM | Kd [4]: 140 nM | Kd [5]: 3.4 nM | Kd (human FcRn [6]): 1600 nM | Binding amount [7]: 0.028 | Relative binding amount [8]: 3.4 | Relative value to KD between G1m and hFcγRs [9]: 106 | Relative value to KD between G1m and hFcγRs [10]: 1.2 | Relative value to KD between G1m and hFcγRs [11]: 16.1 | Relative value to KD between G1m and hFcγRs [12]: 14.2 | Relative value to KD between G1m and hFcγRs [13]: 408 | Relative value to KD between G1m and hFcRn (human FcRn [14]): 0.8
B8: 04H1654-KT462/04L1612-lam1//04H1656-HT445/04L1612-lam1 (antibody, human IgG1, lambda)
heavy 1: B1 heavy 1
heavy 2: B1 heavy 2
light: B1 light with N33T, W34Y
notes: Heterodimerized antibody
